B1: 1G04 (chimeric ONA-0-v1 IgG1 LALA antibody) (antibody)
heavy: not shown
light: SIVMTQTPKFLLVSAGDRITITCKASQSVSDDVAWYQQKPGQSPKLLIYYASNRYTGVPDRFTGSGYGTDFTFTISTVQAEDLAVYFCQQDYSSPLTFGAGTKLEIKRTVAAPSVFIFPPSDEQLKSGTASVVCLLNNFYPREAKVQWKVDNALQSGNSQESVTEQDSKDSTYSLSSTLTLSKADYEKHKVYACEVTHQGLSSPVTKSFNRGEC
notes: Human IgG1 with the LALA alteration, human kappa light chain; also called 1G04 (IgG1)
B2: 1G06 antibody (chimeric ONA-0-v1 IgG1) (antibody)
heavy: QVQLKQSGADLVRPGASVKLSCKASGYTFTDYYINWVKQRPGQGLEWIARIYPGSGNTYYNEKFKGKATLTAEKSSSTAYMQLSSLTSEDSAVYFCARGIGGGFGMDYWGQGTSVTVSSASTKGPSVFPLAPSSKSTSGGTAALGCLVKDYFPEPVTVSWNSGALTSGVHTFPAVLQSSGLYSLSSVVTVPSSSLGTQTYICNVNHKPSNTKVDKKVEPKSCDKTHTCPPCPAPESTRGPSVFLFPPKPKDTLMISRTPEVTCVVVDVSHEDPEVKFNWYVDGVEVHNAKTKPREEQYNSTYRVVSVLTVLHQDWLNGKEYKCKVSNKALPAPIEKTISKAKGQPREPQVYTLPPSRDELTKNQVSLTCLVKGFYPSDIAVEWESNGQPENNYKTTPPVLDSDGSFFLYSKLTVDKSRWQQGNVFSCSVMHEALHNHYTQKSLSLSPGK
light: B1 light
B3: ONA-0-v1 anti-CD36 antibody (murine IgA) (antibody)
heavy: QVQLKQSGADLVRPGASVKLSCKASGYTFTDYYINWVKQRPGQGLEWIARIYPGSGNTYYNEKFKGKATLTAEKSSSTAYMQLSSLTSEDSAVYFCARGIGGGFGMDYWGQGTSVTVSSESARNPTIYPLTLPPVLCSDPVIIGCLIHDYFPFGTMNVTWGKSGKDITTVNFPPALASGGRYTMSSQLTLPAVECPEGESVKCSVQHDSNPVQELDVNCSPTPPPPITIPSCQPSLSLQRPALEDLLLGSDASITCTLNGLRNPEGAAFTWEPSTGKDAVQKKAAQNSCGCYSVSSVLPGCAERWNSGASFKCTVTHPESGTLTGTIAKVTVNTFPPQVHLLPPPSEELALNELLSLTCLVRAFNPKEVLVRWLHGNEELSPESYLVFEPLKEPGEGATTYLVTSVLRVSAETWKQGDQYSCMVGHEALPMNFTQKTIDRLSGKPTNVSVSVIMSEGDGICY
light: SIVMTQTPKFLLVSAGDRITITCKASQSVSDDVAWYQQKPGQSPKLLIYYASNRYTGVPDRFTGSGYGTDFTFTISTVQAEDLAVYFCQQDYSSPLTFGAGTKLEIKRADAAPTVSIFPPSSEQLTSGGASVVCFLNNFYPKDINVKWKIDGSERQNGVLNSWTDQDSKDSTYSMSSTLTLTKDEYERHNSYTCEATHKTSTSPIVKSFNRNEC
notes: mouse IgA constant region; produced in HEK 293 cells; also called ONA-0-v1 (IgA); ONA-O-v1 (IgA)

What was measured:
[1] = molecular target: T1, human CD36 recombinant protein (Sino Biological, reference 10752-H08H) (human, UniProt P16671 30-439); assay: SPR Biacore T200, antibody captured on protein A, CD36 analyte, 2-state model
T1 construct: Bought recombinant protein
Procedure: (§1) The affinity of ONA-0-v1, 1G04, and a commercial anti-CD36 antibody (JC63.1) for human CD36 was also measured by surface plasmon resonance (SPR) using a Biacore T200. 1G04 was analysed using a protein A capture surface, with a capture range of 100-150 RU and an antigen titration range of 3.3-333 nM. The mouse antibodies ONA-0-V1 and the commercial anti-CD36 antibody were analysed using an anti-mouse IgA capture surface, with a capture range of 160-180 RU and an antigen titration range of 3.3-333 nM. For each single analysis cycle a titration of five antigen concentrations were injected over the captured antibody and then the dissociation of the complex was measured. A double referencing method was employed in which data from the reference surfaces where no antibody was captured (fc 1 and 3 respectively) were subtracted from the antibody bound capture surface (fc 2 and 4). Blank injections of buffer were run for every antigen titration cycle and then subtracted from analyte injection cycles, to correct for small changes in the antibody capture surface density. All analysis was performed at 25° C., and the sample rack was kept at 6° C. during experimental runs. Each experiment was run at least three times with the mean binding constants generated from at least two independent assays reported. All analysis was performed in PBS-T running buffer at 40 μL/min.

[2] = molecular target: T2, mouse CD36 recombinant protein (Sino Biological, reference 50422-M08H) (mouse, UniProt Q08857 30-439); assay: ELISA, plate coated with mouse CD36, OD630nm
T2 construct: Bought recombinant protein; also called murine CD36
Procedure: (§2) To perform ELISA assays, 96-well ELISA plates were coated over night with human CD36 (Sino Biological, reference 10752-H08H) or mouse CD36 (Sino Biological, reference 50422-M08H) recombinant proteins at a concentration of 0.25 mg/ml. After two washes with PBS, plates were blocked with 4% skimmed milk in PBS for 1 hour at 37° C. Blocking solution was discarded and plates were washed five times with 200 μl/well PBS-Tween20 (0.5%). Primary antibodies were either omitted (control blocking solution treatment) or mixed in blocking solution at several dilutions ranging from 0.01 nM to 0.5 μM. The primary antibody solutions were added to the wells and incubated over night at 4° C. After 5 washes with 200 ul/well of PBS-Tween20 (0.5%), plates were incubated for 1 hour at room temperature with a goat anti-mouse HRP-conjugated antibody (Abeam, reference ab97235) diluted 1:2000 in blocking solution. Plates were then washed 5 times with 200 μl/well of PBS-Tween20 (0.5%), incubated with 100 μl/well TMB and detected after 10 minutes, 30 minutes, or 60 minutes with a spectrophotometer at a wave length of 630 nm.

[3] = molecular target: T1, human CD36 recombinant protein (Sino …); assay: ELISA, plate coated with human CD36, OD630nm
Procedure: as §2

[4] = molecular target: T1, human CD36 recombinant protein (Sino …); assay: ELISA, plate coated with human CD36, OD630, panel 'Coating: human CD36'; Kd printed beside the 1G04 curve
Procedure: as §2

[5] = molecular target: T1, human CD36 recombinant protein (Sino …); assay: SPR Biacore T200, antibody captured on protein A, CD36 analyte 3.3-333 nM, 1-to-1 model
Procedure: as §1

[6] = molecular target: T2, mouse CD36 recombinant protein (Sino …); assay: ELISA, plate coated with mouse CD36, OD630, panel 'Coating: mouse CD36'; Kd printed beside the 1G04 curve
Procedure: as §2

[7] = molecular target: T3, human CD36 on cells overexpressing human CD36 (human, UniProt P16671 2-472); assay: FACS on cells overexpressing human CD36, % of Binding
Procedure: For FACS analysis, cells were trypsinized, collected in a 15 mL tube and diluted in washing buffer (2% FBS in PBS). Cells were then centrifuged at 1500 rpm for 5 min at 4° C., supernatant was discarded, and cells were resuspended in fresh washing buffer. Anti-CD36 antibodies were either omitted (control wash buffer treatment) or serially diluted in washing buffer (dilution range up to 100 nM), and then added to the cells. Incubation was performed on ice for 1 hour. Cells were then centrifuged at 1500 rpm for 5 min at 4° C., supernatant was discarded, and cells were resuspended in fresh washing buffer. Finally, cells were incubated with a […] (BV421 Rat Anti-Mouse IgA, Becton Dickinson, reference 743293) diluted 1:100 in washing buffer, washed and analysed by FACS.

[8] = molecular target: T3, human CD36 on cells overexpressing …; assay: FACS on cells overexpressing human CD36, GeoMFI against Log10 mAb Concentration (nM)
[9] = molecular target: T3, human CD36 on cells overexpressing …; assay: FACS on cells overexpressing human CD36, MFI
[10] = molecular target: T1, human CD36 recombinant protein (Sino …); assay: SPR Biacore T200, antibody captured on anti-mouse IgA, CD36 analyte, 2-state model
Procedure: as §1

[11] = molecular target: T1, human CD36 recombinant protein (Sino …); assay: SPR Biacore T200, antibody captured on anti-mouse IgA, CD36 analyte 3.3-333 nM, 1-to-1 model
Procedure: as §1

[12] = molecular target: T2, mouse CD36 recombinant protein (Sino …); assay: ELISA, plate coated with mouse CD36, OD630, panel 'Coating: mouse CD36'
Procedure: as §2

[13] = molecular target: T2, mouse CD36 recombinant protein (Sino …); assay: estimated from ELISA, CD36 coated on plate; mouse CD36 coated on plate
Procedure: as §2

[14] = molecular target: T1, human CD36 recombinant protein (Sino …); assay: estimated from ELISA, CD36 coated on plate; human CD36 coated on plate
Procedure: as §2

T2 sequence (Q08857 30-439 limits assumed, stated change not applied): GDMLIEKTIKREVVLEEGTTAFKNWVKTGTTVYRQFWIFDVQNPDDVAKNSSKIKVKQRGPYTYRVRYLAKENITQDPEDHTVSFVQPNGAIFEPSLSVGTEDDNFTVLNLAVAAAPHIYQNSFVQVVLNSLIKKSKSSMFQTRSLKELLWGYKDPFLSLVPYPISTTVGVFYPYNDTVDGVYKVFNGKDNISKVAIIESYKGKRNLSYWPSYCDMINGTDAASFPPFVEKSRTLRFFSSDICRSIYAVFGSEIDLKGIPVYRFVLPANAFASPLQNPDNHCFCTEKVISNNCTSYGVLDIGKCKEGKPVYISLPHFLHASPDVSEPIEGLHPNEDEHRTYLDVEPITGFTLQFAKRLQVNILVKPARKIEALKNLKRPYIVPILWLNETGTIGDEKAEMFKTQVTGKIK
T3 sequence (P16671 2-472 limits assumed): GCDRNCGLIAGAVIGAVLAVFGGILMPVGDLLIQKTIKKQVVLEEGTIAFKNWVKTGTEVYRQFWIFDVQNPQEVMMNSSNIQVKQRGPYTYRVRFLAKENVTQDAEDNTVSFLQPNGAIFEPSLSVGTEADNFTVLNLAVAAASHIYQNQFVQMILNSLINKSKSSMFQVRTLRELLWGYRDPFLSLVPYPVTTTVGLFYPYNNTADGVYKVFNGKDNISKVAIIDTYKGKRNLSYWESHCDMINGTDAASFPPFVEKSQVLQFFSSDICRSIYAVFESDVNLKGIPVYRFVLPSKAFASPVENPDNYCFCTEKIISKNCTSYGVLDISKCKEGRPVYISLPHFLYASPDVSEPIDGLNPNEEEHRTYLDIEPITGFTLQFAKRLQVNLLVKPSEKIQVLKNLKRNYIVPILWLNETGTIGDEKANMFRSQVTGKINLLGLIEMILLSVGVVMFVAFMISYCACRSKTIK
T1 sequence (P16671 30-439 limits assumed): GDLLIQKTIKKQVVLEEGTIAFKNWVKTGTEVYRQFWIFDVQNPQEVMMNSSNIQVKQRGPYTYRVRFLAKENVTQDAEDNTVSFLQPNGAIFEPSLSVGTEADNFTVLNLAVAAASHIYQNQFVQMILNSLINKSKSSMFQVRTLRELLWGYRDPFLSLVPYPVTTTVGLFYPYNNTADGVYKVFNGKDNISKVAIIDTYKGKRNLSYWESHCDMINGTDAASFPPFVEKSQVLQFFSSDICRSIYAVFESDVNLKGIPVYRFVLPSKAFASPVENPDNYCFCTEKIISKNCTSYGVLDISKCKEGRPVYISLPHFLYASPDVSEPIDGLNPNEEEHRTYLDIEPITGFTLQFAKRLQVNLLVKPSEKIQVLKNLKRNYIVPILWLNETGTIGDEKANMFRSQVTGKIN

Row | Binder | Kd [1] | EC50 (read off the curve) [2] | EC50 (read off the curve) [3] | Kd [4] | Kd [5] | koff [5] | kon [5] | Kd [6] | EC50 (read off the curve) [7] | EC50 (read off the curve) [8] | EC50 (read off the curve) [9] | Kd [10] | Kd [11] | koff [11] | kon [11] | EC50 (read off the curve) [12] | Kd [13] | Kd [14]
1 | B1 | 2.78 nM | ~0.3 nM | ~0.08 nM | 0.04 nM | 1.74 nM | 0.000159 s⁻¹ | 100000 M⁻¹ s⁻¹ | 0.1 nM | ~0.03 nM | ~0.4 nM | ~0.2 nM |  |  |  |  |  |  | 
2 | B2 |  |  | ~0.08 nM |  |  |  |  |  |  | ~0.4 nM |  |  |  |  |  |  |  | 
3 | B3 |  |  |  |  |  |  |  |  | ~0.03 nM |  |  | 8.72 nM | 5.85 nM | 0.00354 s⁻¹ | 632000 M⁻¹ s⁻¹ | ~1 nM | ~0.1 nM | ~0.04 nM

Reference: patent US20230235073A1 (ONA THERAPEUTICS S L, published 2023)
